What was measured:
[1] = molecular target: HIV-1 Env gp140 89.6 (HIV-1 isolate 89.6) (UniProt Q73372); assay: ELISA on coated gp140 89.6 and SPR (Biacore X100, single-cycle, bivalent model)
[2] = molecular target: HIV-1 Env gp140 89.6 (HIV-1 isolate 89.6) (UniProt Q73372); assay: ELISA, gp140 89.6 coated at 2 µg/ml, detection with HRP goat anti-human IgG (Fab-specific)
[3] = molecular target: HIV-1 Env gp140 89.6 (HIV-1 isolate 89.6) (UniProt Q73372); assay: SPR, Biacore X100, single-cycle, analytes at 0.1-1,000 nM on gp140 89.6, bivalent binding model

Row | Substance | fold higher affinity than MD [1] | EC50 (read off the curve) [2] | Kd [3] | koff [3] | kon [3]
1 | MD13 (MD mutant with S64E/S66V in CH1 and S69L/T71S in CK) | 1000 fold | 1 to 10 nM | 17 nM | 0.00081 s⁻¹ | 47000 M⁻¹ s⁻¹
2 | MD (mD1.22-CH1/m36.4-CK heterodimer, wild-type CH1-CK) | – | – | 16000 nM | 0.077 s⁻¹ | 4800 M⁻¹ s⁻¹

From patent US20180118815A1
